Measured values reported in patent US20230357429A1 (JANUX THERAPEUTICS, published 2023).
Read-outs that look alike come from different tables or passages of the source. Where no end group is shown, it is not given here.

Assays:
[1] = target: T1, Human TROP2 ECD (31-274 AA), biotinylated (human, UniProt P09758 31-274, biotinylated (site not stated)); test: ELISA, Fab on captured biotin-TROP2
T1 construct: captured on neutravidin plates; also called TROP2-biotin; Trop2-biotin
T1 sequence: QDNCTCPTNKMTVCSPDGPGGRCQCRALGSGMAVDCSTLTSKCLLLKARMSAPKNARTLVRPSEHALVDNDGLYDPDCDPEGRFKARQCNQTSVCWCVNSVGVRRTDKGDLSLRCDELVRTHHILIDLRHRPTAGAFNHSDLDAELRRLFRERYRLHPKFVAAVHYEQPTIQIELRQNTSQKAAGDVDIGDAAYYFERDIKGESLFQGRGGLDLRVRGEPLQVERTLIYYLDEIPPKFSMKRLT

[2] = target: T2, Peptide-3 (cysteine pairing not given here; also: biotinylated, site not given here); test: ELISA, Fab on captured biotin-peptide
T2 peptide: IDFCMLYNWPICAG

[3] = target: T3, Peptide-7 (cysteine pairing not given here; also: biotinylated, site not given here); test: ELISA, Fab on captured biotin-peptide
T3 peptide: EDFCKLYNWPICYQ

[4] = target: T4, Peptide-10 (cysteine pairing not given here; also: biotinylated (site not given here)); test: ELISA, Fab on captured biotin-peptide
T4 peptide: IDFCAIYQWPVCRS

[5] = target: T5, Peptide-13 (cysteine pairing not given here; also: biotinylated (site not given here)); test: ELISA, Fab on captured biotin-peptide
T5 peptide: VDFCELYRWPICNS

[6] = target: T6, Peptide-14 (cysteine pairing not given here; also: biotinylated (site not given here)); test: ELISA, Fab on captured biotin-peptide
T6 peptide: LDFCKIYDWPICHL

[7] = target: T7, Peptide-18 (cysteine pairing not given here; also: biotinylated (site not given here)); test: ELISA, Fab on captured biotin-peptide
T7 peptide: MDFCQIYDWPICRL

[8] = target: T8, Peptide-27 (cysteine pairing not given here; also: biotinylated, site not given here); test: ELISA, Fab on captured biotin-peptide
T8 peptide: FSLVCVRNLYCWNV

[9] = target: T9, Peptide-29 (cysteine pairing not given here; also: biotinylated, site not given here); test: ELISA, Fab on captured biotin-peptide
T9 peptide: SYLVCVKNVYCWTA

[10] = target: T10, Peptide-2 (cysteine pairing not given here; also: biotinylated (site not given here)); test: ELISA, Fab on captured biotin-peptide
T10 peptide: IDFCAVYKWPVCQV

[11] = target: T2, Peptide-3; test: ELISA, Fab on captured biotin-peptide
Protocol: Binding was measured in a standard ELISA format. […] Bound TBDs were detected using a standard horse radish peroxidase conjugate secondary antibody. The ELISA signal was plotted versus the log-scale concentration of TBD. The concentrations of TBD required to observe half maximal binding signal (EC₅₀s) were calculated using Graphpad Prism software.

[12] = target: T11, Peptide-8 (cysteine pairing not given here; also: biotinylated, site not given here); test: ELISA, Fab on captured biotin-peptide
T11 peptide: VDFCGLYHWPICYQ

[13] = target: T12, Peptide-25 (cysteine pairing not given here; also: biotinylated (site not given here)); test: ELISA, Fab on captured biotin-peptide
T12 peptide: VDFCKIYSWPVCHQ

[14] = target: T13, Peptide-32 (cysteine pairing not given here; also: biotinylated, site not given here); test: ELISA, Fab on captured biotin-peptide
T13 peptide: PDFCYMYGWPICDS

[15] = target: T14, Peptide-33 (cysteine pairing not given here; also: biotinylated, site not given here); test: ELISA, Fab on captured biotin-peptide
T14 peptide: PDFCYMYNWPVCVT

[16] = target: T15, Peptide-35 (cysteine pairing not given here; also: biotinylated, site not given here); test: ELISA, Fab on captured biotin-peptide
T15 peptide: EDFCYWYQWPICSD

[17] = target: T16, Peptide-36 (cysteine pairing not given here; also: biotinylated, site not given here); test: ELISA, Fab on captured biotin-peptide
T16 peptide: VDFCYQYGWPICSR

[18] = target: T17, Peptide-37 (cysteine pairing not given here; also: biotinylated, site not given here); test: ELISA, Fab on captured biotin-peptide
T17 peptide: VDFCYLYNWPVCSK

[19] = target: T18, Peptide-38 (cysteine pairing not given here; also: biotinylated, site not given here); test: ELISA, Fab on captured biotin-peptide
T18 peptide: VDFCSIYHWPVCYV

[20] = target: T19, Peptide-39 (cysteine pairing not given here; also: biotinylated, site not given here); test: ELISA, Fab on captured biotin-peptide
T19 peptide: VDFCGLYHWPICYQVD

[21] = target: T20, Peptide-40 (cysteine pairing not given here; also: biotinylated, site not given here); test: ELISA, Fab on captured biotin-peptide
T20 peptide: VDFCYLYSWPICTK

[22] = target: T21, Peptide-41 (cysteine pairing not given here; also: biotinylated, site not given here); test: ELISA, Fab on captured biotin-peptide
T21 peptide: VDFCGLYHWPICYQVY

[23] = target: T22, Peptide-42 (cysteine pairing not given here; also: biotinylated, site not given here); test: ELISA, Fab on captured biotin-peptide
T22 peptide: IDFCAMYHWPICDT

[24] = target: T23, Peptide-43 (cysteine pairing not given here; also: biotinylated, site not given here); test: ELISA, Fab on captured biotin-peptide
T23 peptide: VDFCALYHWPICYQ

[25] = target: T24, Peptide-62 (cysteine pairing not given here; also: biotinylated, site not given here); test: ELISA, Fab on captured biotin-peptide
T24 peptide: IDFCAVYKWPVCQV

[26] = target: T25, Peptide-63 (cysteine pairing not given here; also: biotinylated, site not given here); test: ELISA, Fab on captured biotin-peptide
T25 peptide: IDFCLIYNWPVCDT

[27] = target: T26, Peptide-64 (cysteine pairing not given here; also: biotinylated, site not given here); test: ELISA, Fab on captured biotin-peptide
T26 peptide: PDFCAVYRWPICYQ

[28] = target: T27, Peptide-46 (cysteine pairing not given here; also: biotinylated, site not given here); test: ELISA, Fab on captured biotin-peptide
T27 peptide: VEFCAIYSWPICKI

[29] = target: T28, Peptide-52 (cysteine pairing not given here; also: biotinylated, site not given here); test: ELISA, Fab on captured biotin-peptide
T28 peptide: VDFCYQYAWPVCSTGD

B1: TBD-6 (LC I93A) (Fab, V domains shown)
VH: QVQLQQSGSELKKPGASVKVSCKASGYTFTNYGMNWVKQAPGQGLKWMGWINTYTGEPTYTDDFKGRFAFSLDTSVSTAYLQISSLKADDTAVYFCARGGFGSSYWYFDVWGQGSLVTVSS
VL: DIQLTQSPSSLSASVGDRVSITCKASQDVSIAVAWYQQKPGKAPKLLIYSASYRYTGVPDRFSGSGSGTDFTLTISSLQPEDFAVYYCQQHYATPLTFGAGTKVEIKR
notes: Fab; also called LC I93A mutant
An EC50 [1] of 0.3 nM, an EC50 [2] of 11.4 nM and an EC50 [3] of 59.6 nM were found for B1 in this work. The EC50 [4] was 8.5 nM, the EC50 [5] was 21.4 nM and the EC50 [6] was 145 nM. It also gave an EC50 [7] of 83.2 nM, an EC50 [8] of 178 nM and an EC50 [9] of 43.8 nM. For the same binder, the EC50 [10] was 9.9 nM, the EC50 [11] was 18.3 nM and the EC50 [12] was 8.5 nM. The EC50 [13] was 10.9 nM, the EC50 [14] was 20.1 nM and the EC50 [15] was 9.6 nM. For the same binder, the EC50 [16] was 131 nM, the EC50 [17] was 23.8 nM and the EC50 [18] was 9.3 nM. It also gave an EC50 [19] of 9.8 nM, an EC50 [20] of 32.1 nM and an EC50 [21] of 30.4 nM. It also gave an EC50 [22] of 41 nM, an EC50 [23] of 5.7 nM and an EC50 [24] of 7.2 nM. It also gave an EC50 [25] of 5.1 nM, an EC50 [26] of 9.5 nM and an EC50 [27] of 6.4 nM. The EC50 [28] was 102 nM and the EC50 [29] was 39.3 nM.
